T1: human DLL3 on cells (human, UniProt Q9NYJ7 27-618)
T1 construct: Endogenous on H1184 and SHP77; Cell line is named under assay; also called H1184; DLL3/H82
T1 sequence: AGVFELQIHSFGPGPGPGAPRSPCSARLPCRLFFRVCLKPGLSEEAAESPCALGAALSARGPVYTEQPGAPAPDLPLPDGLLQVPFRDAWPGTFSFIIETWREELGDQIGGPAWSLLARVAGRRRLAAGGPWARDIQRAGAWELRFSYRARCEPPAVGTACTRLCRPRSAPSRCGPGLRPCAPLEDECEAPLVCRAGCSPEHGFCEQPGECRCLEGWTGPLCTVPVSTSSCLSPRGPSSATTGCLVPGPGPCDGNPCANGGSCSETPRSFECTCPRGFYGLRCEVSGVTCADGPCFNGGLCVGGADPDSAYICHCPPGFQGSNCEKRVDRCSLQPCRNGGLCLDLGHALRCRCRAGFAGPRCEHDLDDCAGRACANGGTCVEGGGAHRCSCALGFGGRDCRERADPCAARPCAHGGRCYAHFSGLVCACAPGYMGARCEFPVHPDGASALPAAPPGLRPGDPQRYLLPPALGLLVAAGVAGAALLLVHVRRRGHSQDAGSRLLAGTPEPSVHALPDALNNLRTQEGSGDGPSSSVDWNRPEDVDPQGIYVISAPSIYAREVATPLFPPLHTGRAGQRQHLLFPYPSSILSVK

T2: human DLL3 (ACRO, DLL3-H52H4) (human, UniProt Q9NYJ7 27-492)
T2 construct: Bought
T2 sequence: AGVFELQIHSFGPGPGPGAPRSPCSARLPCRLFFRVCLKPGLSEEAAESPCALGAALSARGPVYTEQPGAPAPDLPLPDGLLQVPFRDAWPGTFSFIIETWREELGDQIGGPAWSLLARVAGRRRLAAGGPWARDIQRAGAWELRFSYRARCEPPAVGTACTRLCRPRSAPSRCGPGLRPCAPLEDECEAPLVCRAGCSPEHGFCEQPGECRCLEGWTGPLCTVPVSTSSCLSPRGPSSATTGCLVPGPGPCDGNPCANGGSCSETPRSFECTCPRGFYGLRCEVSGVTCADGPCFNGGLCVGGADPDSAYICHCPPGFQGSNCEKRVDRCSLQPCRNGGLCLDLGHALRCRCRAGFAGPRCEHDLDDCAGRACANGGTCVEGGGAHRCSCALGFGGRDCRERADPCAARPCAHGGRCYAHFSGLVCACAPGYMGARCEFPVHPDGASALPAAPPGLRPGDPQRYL


Key:
human DLL3 on cells [1] = biological target: T1, human DLL3 on cells; assay: flow cytometry, SHP77 cells
Procedure: (§1) The plates were centrifuged at 300 g for 5 min, and the supernatant was removed. Different concentrations of test antibodies were added at 100 μL/well. The plates were incubated in the dark in a refrigerator at 4° C. for 1 h. After 3 centrifugal washes at 300 g, working concentrations of APC anti-human IgG Fc (BioLegend, 410712) or PE F(ab′)2-goat anti-human IgG (invitrogen, H10104) were added. The plates were incubated in the dark in a refrigerator at 4° C. for 40 min. After 3 centrifugal washes at 300 g, the geometric mean fluorescence intensity was measured on an Invitrogen flow cytometer, and the EC50 values for the binding of the antibodies to DLL3-expressing cells were calculated.

human DLL3 on cells [2] = biological target: T1, human DLL3 on cells; assay: flow cytometry, DLL3/H82 cells; design: key to Emax: geometric mean fluorescence intensity (flow cytometry)
Procedure: as §1

[3] = biological target: T2, human DLL3 (ACRO, DLL3-H52H4); assay: SPR Biacore 8K, Ab captured on Protein A
In short: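 Antibodies captured on a Protein A chip for 18 s; DLL3 or CD3D&3E antigen flowed 180 s, then 600 s dissociation, with real-time detection. Regeneration used 10 mM glycine-HCl pH 1.5 between cycles. Kinetics were obtained by 1:1 model fitting.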

hIL5 = hIL5 (human, UniProt P05113 20-134); assay: ELISA
hTSLP = hTSLP (human, UniProt Q969D9 29-159); assay: ELISA

Row | Binder | EC50 (human DLL3 on cells [1]) [nM] | Emax (human DLL3 on cells [1]) | EC50 (human DLL3 on cells [2]) [nM] | Emax (human DLL3 on cells [2]) | Kd [3] [nM] | koff [3] [s⁻¹] | kon [3] [M⁻¹ s⁻¹] | EC50 (hIL5) [nM] | EC50 (hTSLP) [nM]
1 | hu30L1H5 (antibody, human IgG1, kappa, V domains shown) VH: EVRLVQSGAEVKKPGASVKVSCKASGYTFTDYYMNWVRQAPGQSLEWMGIINPYTGDTSYNQKFRGRVTLTVDKSASTAYMELSSLRSEDTAVYYCARYHYGPHLEGYFDVWGQGTTVTVSS VL: DIVMTQSPDSLAVSLGERATINCKASENVGYVSWYQQKPGQPPKLLIYGASNRYTGVPDRFSGSGSGTDFTLTISSLQAEDVAVYYCGQSYSYPLTFGQGTKLEIKR | 6.45 | 1540 | 0.88 | 6800 | 0.952 | 0.00117 | 1.23e+06 |  | 
2 | hu30L4H5 (antibody, human IgG1, kappa, V domains shown) VH: EVRLVQSGAEVKKPGASVKVSCKASGYTFTDYYMNWVRQAPGQSLEWMGIINPYTGDTSYNQKFRGRVTLTVDKSASTAYMELSSLRSEDTAVYYCARYHYGPHLEGYFDVWGQGTTVTVSS VL: DIQMTQSPSSLSASVGDRVTITCKASENVGYVSWYQQKPGKAPKLLIYGASNRYTGVPSRFSGSGSGTDFTLTISSLQPEDFATYYCGQSYSYPLTFGQGTKLEIKR | 5.44 | 1460 |  |  | 2.09 | 0.00092 | 440000 |  | 
3 | hu30L1H8 (antibody, human IgG1, kappa, V domains shown) VH: EVRLVQFGAVVKKPGASVKVSCKASGYTFTDYYMNWVRQAPGQSLEWMGIINPYTGDTSYNQKFRGRVTLTVDKSSSTAYMELSSLRSEDTAVYYCARYHYGPHLEGYFDVWGQGTTVTVSS VL: DIVMTQSPDSLAVSLGERATINCKASENVGYVSWYQQKPGQPPKLLIYGASNRYTGVPDRFSGSGSGTDFTLTISSLQAEDVAVYYCGQSYSYPLTFGQGTKLEIKR | 5.67 | 1380 |  |  | 2.57 | 0.00109 | 425000 |  | 
4 | hu30L1H10 (antibody, human IgG1, kappa, V domains shown) VH: EVRLVQSGAEVKKPGASVKVSCKASGYTFTDYYMNWVRQSHGQSLEWMGIINPYTGDTSYNQKFRGRVTLTVDKSASTAYMELSSLRSEDTAVYYCARYHYGPHLEGYFDVWGQGTTVTVSS VL: DIVMTQSPDSLAVSLGERATINCKASENVGYVSWYQQKPGQPPKLLIYGASNRYTGVPDRFSGSGSGTDFTLTISSLQAEDVAVYYCGQSYSYPLTFGQGTKLEIKR | 7.99 | 1630 |  |  | 2.19 | 0.000964 | 440000 |  | 
5 | HJ-3 (bispecific antibody) chain 1: not shown chain 2: DIQMTQSPSSVSASVGDRVTITCRASQDIANYLSWYQQKPGKSPKLLIYGTSNLEVGVPSRFSGSRSGTDFTLTISSLQPEDFATYYCLQDKEFPRTFGGGTKVEIKGGGGSSGAPRFLTRPLAFVVSVGKDATLSSQIVGNPTPQVSWEKDKQPVTAGARFRLAQDGDLYRLKILDLQLSDSGQYVSRARNAIGEAFACLGLQVDAEA chain 3: EVQLVQSGAEVKKPGSSVKVSCKASGYTFSNYLIEWVRQAPGQGLEWIGVIDPGVGDTNYNENFKGRATLTADKSTSTAYIELSSLRSEDTAVYYCAREDNTGTAFDYWGQGTTVTVSSASTKGPSVFPLAPSSKSTSGGTAALGCLVKDYFPEPVTVSWNSGALTSGVHTFPAVLQSSGLYSLSSVVTVPSSSLGTQTYICNVNHKPSNTKVDKKVEPKSCDKTHTCPPCPAPEAAGGPSVFLFPPKPKDTLMISRTPEVTCVVVDVSHEDPEVKFNWYVDGVEVHNAKTKPREEQYNSTYRVVSVLTVLHQDWLNGKEYKCKVSNKALPAPIEKTISKAKGQPREPQVCTLPPSREEMTKNQVSLSCAVKGFYPSDIAVEWESNGQPENNYKTTPPVLDSDGSFFLVSKLTVDKSRWQQGNVFSCSVMHEALHNHYTQKSLSLSPGKDYKDDDDK chain 4: SIVMTQTPLSLSVTPGQPASISCKASQSVSSDVTWYLQKPGQSPQLLIYYVSEHYTGVPDRFSGSGYGTDFTLKISRVEAEDVGVYYCQQHHRFPLTFGQGTKLEIKRTVAAPSVFIFPPSDEQLKSGTASVVCLLNNFYPREAKVQWKVDNALQSGNSQESVTEQDSKDSTYSLSSTLTLSKADYEKHKVYACEVTHQGLSSPVTKSFNRGEC |  |  |  |  |  |  |  | 17.4 | 3.23

The next lines start with the values.

Row | EC50 (human DLL3 on cells [1]) [nM] | Emax (human DLL3 on cells [1]) | EC50 (human DLL3 on cells [2]) [nM] | Emax (human DLL3 on cells [2]) | Kd [3] [nM] | koff [3] [s⁻¹] | kon [3] [M⁻¹ s⁻¹] | EC50 (hIL5) [nM] | EC50 (hTSLP) [nM] | Binder
6 | 9.6 | 1560 |  |  | 2.48 | 0.000989 | 399000 |  |  | hu30L5H9 (antibody, human IgG1, kappa, V domains shown) VH: EVRLVQSGAEVKKPGASVKVSCKASGYTFTDYYMNWVRQAPGQSLEWIGIINPYTGDTSYNQKFRGRATLTVDKSASTAYMELSSLRSEDTAVYYCARYHYGPHLEGYFDVWGQGTTVTVSS VL: DIQMTQSPSSLSASVGDRVTITCKASENVGYVSWYQQKPGKSPKLLIYGASNRYTGVPDRFSGSGSGTDFTLTISSLQPEDFATYYCGQSYSYPLTFGSGTKLEIKR
7 | 7.48 | 1610 |  |  | 1.98 | 0.000882 | 446000 |  |  | hu30L5H5 (antibody, human IgG1, kappa, V domains shown) VH: EVRLVQSGAEVKKPGASVKVSCKASGYTFTDYYMNWVRQAPGQSLEWMGIINPYTGDTSYNQKFRGRVTLTVDKSASTAYMELSSLRSEDTAVYYCARYHYGPHLEGYFDVWGQGTTVTVSS VL: DIQMTQSPSSLSASVGDRVTITCKASENVGYVSWYQQKPGKSPKLLIYGASNRYTGVPDRFSGSGSGTDFTLTISSLQPEDFATYYCGQSYSYPLTFGSGTKLEIKR
8 | 5.3 | 1420 |  |  | 2.74 | 0.000942 | 343000 |  |  | hu30L4H8 (antibody, human IgG1, kappa, V domains shown) VH: EVRLVQFGAVVKKPGASVKVSCKASGYTFTDYYMNWVRQAPGQSLEWMGIINPYTGDTSYNQKFRGRVTLTVDKSSSTAYMELSSLRSEDTAVYYCARYHYGPHLEGYFDVWGQGTTVTVSS VL: DIQMTQSPSSLSASVGDRVTITCKASENVGYVSWYQQKPGKAPKLLIYGASNRYTGVPSRFSGSGSGTDFTLTISSLQPEDFATYYCGQSYSYPLTFGQGTKLEIKR
9 | 9.94 | 1370 |  |  | 2.57 | 0.00101 | 392000 |  |  | hu30L4H9 (antibody, human IgG1, kappa, V domains shown) VH: EVRLVQSGAEVKKPGASVKVSCKASGYTFTDYYMNWVRQAPGQSLEWIGIINPYTGDTSYNQKFRGRATLTVDKSASTAYMELSSLRSEDTAVYYCARYHYGPHLEGYFDVWGQGTTVTVSS VL: DIQMTQSPSSLSASVGDRVTITCKASENVGYVSWYQQKPGKAPKLLIYGASNRYTGVPSRFSGSGSGTDFTLTISSLQPEDFATYYCGQSYSYPLTFGQGTKLEIKR
10 | 7.82 | 1520 |  |  | 2.84 | 0.00113 | 398000 |  |  | hu30L4H11 (antibody, human IgG1, kappa, V domains shown) VH: EVRLVQFGAVVKKPGASVKVSCKASGYTFTDYYMNWVRQAPGQSLEWMGIINPYTGDTSYNQKFRGRVTLTVDKSSSTAYMELSSLTSEDTAVYYCARYHYGPHLEGYFDVWGQGTTVTVSS VL: DIQMTQSPSSLSASVGDRVTITCKASENVGYVSWYQQKPGKAPKLLIYGASNRYTGVPSRFSGSGSGTDFTLTISSLQPEDFATYYCGQSYSYPLTFGQGTKLEIKR

From patent publication US20250376519A1 (JIANGSU HENGRUI PHARMACEUTICALS, published 2025)
